In patent US20210163555:

Key:
[1] = test system: Flag-p18
[2] = target: Recombinant human p18 (His-p18)

Molecule	levels of ubiquitinated p18 after Ube3a siRNA KD (His-ubiquitin pull-down assay) [1]	in vitro ubiquitination of p18 (Western blot) [2]
endogenous Ube3a of COS-1 cells	100.0±1.8 vs. 66.8±3.7	–
His6-E6AP (protein) MEKLHQCYWKSGEPQSDDIEASRMKRAAAKHLIERYYHQLTEGCGNEACTNEFCASCPTFLRMDNNAAAIKALELYKINAKLCDPHPSKKGASSAYLENSKGAPNNSCSEIKMNKKGARIDFKDVTYLTEEKVYEILELCREREDYSPLIRVIGRVFSSAEALVQSFRKVKQHTKEELKSLQAKDEDKDEDEKEKAACSAAAMEEDSEASSSRIGDSSQGDNNLQKLGPDDVSVDIDAIRRVYTRLLSNEKIETAFLNALVYLSPNVECDLTYHNVYSRDPNYLNLFIIVMENRNLHSPEYLEMALPLFCKAMSKLPLAAQGKLIRLWSKYNADQIRRMMETFQQLITYKVISNEFNSRNLVNDDDAIVAASKCLKMVYYANVVGGEVDTNHNEEDDEEPIPESSELTLQELLGEERRNKKGPRVDPLETELGVKTLDCRKPLIPFEEFINEPLNEVLEMDKDYTFFKVETENKFSFMTCPFILNAVTKNLGLYYDNRIRMYSERRITVLYSLVQGQQLNPYLRLKVRRDHIIDDALVRLEMIAMENPADLKKQLYVEFEGEQGVDEGGVSKEFFQLVVEEIFNPDIGMFTYDESTKLFWFNPSSFETEGQFTLIGIVLGLAIYNNCILDVHFPMVVYRKLMGKKGTFRDLGDSHPVLYQSLKDLLEYEGNVEDDMMITFQISQTDLFGNPMMYDLKENGDKIPITNENRKEFVNLYSDYILNKSVEKQFKAFRRGFHMVTNESPLKYLFRPEEIELLICGSRNLDFQALEETTEYDGGYTRDSVLIREFWEIVHSFTDEQKRLFLQFTTGTDRAPVGGLGKLKMIIAKNGPDTERLPTSHTCFNVLLLPEYSSKEKLKERLLKAITYAKGFGML	–	p18 ubiquitination was only observed in the presence of Ube3a, ubiquitin, E1, E2, and ATP
